From publication PMC12171399
One block for each substance: values may come before it.

Tests used:
[1] = biological target: secreted form of VEGF-A-HisTag expressed in Expi293 cells (mouse) (UniProt Q00731); assay: SDS-PAGE; VEGF-A-HisTag from Expi293 culture media, purified on a heparin affinity column
[2] = biological target: non-tagged mature mouse VEGF-A (188 amino acids form), refolded from TAPS-VEGF-A (mouse); assay: SDS-PAGE under reducing and non-reducing conditions; purified protein; disulfide-linked homodimer told from monomer by comparing migration under reducing or non-reducing conditions; 5%-20% gradient gel; refolded samples after cation-exchange chromatography
[3] = biological target: VEGF-A-HisTag refolded from inclusion bodies of BL21(DE3) (mouse); assay: as above

stoichiometry N [1]: 2
Substance: secreted form of VEGF-A-HisTag expressed in Expi293 cells (from UniProt Q00731 1-392) (ligand)

stoichiometry N [2]: 2
Substance: non-tagged mature mouse VEGF-A (188 amino acids form), refolded from TAPS-VEGF-A (ligand)

stoichiometry N [3]: 2
Substance: VEGF-A-HisTag refolded from inclusion bodies of BL21(DE3) (ligand)
